Source: US20210252150A1

How the values were obtained:
Assay in all cases: ELISA
[1] = target: HA of A/Solomon Islands/03/2006 (H1N1) (influenza A virus (H1N1))
[2] = target: HA of A/Texas/50/2012 (H3N2) (influenza A virus (H3N2))
[3] = target: HA of A/Texas/36/1991 (H1N1) (influenza A virus (H1N1))

Measured: EC50 fold over wild-type rFluA-20

B1: rFluA-20 heavy chain mutant Y100aA (antibody, V domains shown)
VH: QVQLQESGPGLVKPSETLSLTCSVSGVSVTSDIYYWTWIRQPPGKGLEWIGYIFYNGDTNYNPSLKSRVTMSIDTSKNEFSLRLTSVTAADTAVYFCARGTEDLGACSSGSCPNHWGQGTLVTVSS
VL: DIQMTQSPSSLSASIGDRVTITCRPSQNIRSFLNWFQHKPGKAPKLLIYAASNLQSGVPSRFSGSGSGTEFTLTIRSLQPEDFATYYCQQSYNTPPTFGQGTKVEIK
> 100 fold: all assays above
